Target: human TREM2 on cells (human) (UniProt Q9NZC2)
Experiment: cell-based or functional assay

Sequence of human TREM2 on cells (human) (Q9NZC2 19-230): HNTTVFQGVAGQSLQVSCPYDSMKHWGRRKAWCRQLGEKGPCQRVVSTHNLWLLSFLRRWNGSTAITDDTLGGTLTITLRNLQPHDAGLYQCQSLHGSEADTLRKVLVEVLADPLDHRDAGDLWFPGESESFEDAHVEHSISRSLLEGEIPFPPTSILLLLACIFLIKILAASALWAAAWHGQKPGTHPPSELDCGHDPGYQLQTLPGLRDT

Emax (% maximum activation compared to RnD antibody): 100% | pSyk EC50, HEK293T human TREM2/DAP12: 0.5 nM | pSyk EC50, differentiated THP-1 cells: 0.383 nM | pSyk Emax, HEK293T human TREM2/DAP12: 13.8
Substance: rat anti-human/mouse TREM2 antibody mAb17291 (Rat IgG2b Clone #237920, R&D Systems)
